According to patent publication US11180560B2, “Compositions and methods to treat solid tumors” (Wayne State University, priority 2015, dated 2021):

Legend:
[1] = system: sensitive EOC cell lines, their Taxotere or Cisplatin resistant counterparts and colon, endometrial, lung, prostate, bladder, hepatocellular cancer cell lines; test: TACS MTT cell viability, Abciximab in cancer versus non-cancer cells; type: cell-based, human; settings: increasing doses of Abciximab; cancer cells compared to non-cancer cells; FIG. 1A
Text: FIGS. 1A-1E. Anti-cancer effects of Abciximab and NIF. (FIG. 1A) Anti-cancer effects of Abciximab in sensitive EOC cell lines (A2780, MDAH-2774, SKOV-3, OV90, TOV21G, OV112D, OV433, and HTB-161) and their Taxotere or Cisplatin resistant counterparts, human macrophages, and other cancer cell lines including colon (HTB-37), endometrial (CRL-1671), lung (CCL-257), prostate (CRL-1740), bladder (HTB-4), and hepatocellular (HB-8065) cancers, in vitro. (FIG. 1B) The combined effect of Abciximab alone or in combination with Cisplatin in both sensitive A2780 and their (FIG. 1C) Cisplatin resistant counterpart in vitro. […] (FIG. 1E) Anti-cancer effects of NIF in both sensitive A2780 and their Cisplatin resistant counterpart in vitro.
Cell viability was determined using the TACS MTT Cell Proliferation Assay (Trevigen, Gaithersburg, Md.) per the manufacturer's protocol. Briefly, measurement of cell proliferation is based upon the reduction of the tetrazolium salt, 3,[4,5-dimethytthiazol-2-yl]-2,5-diphenyl-tetrazolium bromide (MTT). MTT is reduced to an insoluble formazan dye by mitochondrial enzymes associated with metabolic activity of living cells. […] Absorbance was measured at 570 nm. […] A standard curve was constructed utilizing the OD readings correlating with each standard point and was utilized to determine cell number in the test samples. […]

[2] = system: A2780 sensitive and cisplatin resistant EOC cells; test: TACS MTT cell viability in A2780 cells; type: cell-based, human; settings: Abciximab combined with cisplatin, CI<1 indicates synergism, FIGS. 1B-1D
Method: FIGS. 3A-3E. Cell viability in A2780 sensitive and cisplatin resistant EOC cells after treatment with integrin αV and integrin β1 antibody. (FIG. 3A) A2780 chemosensitive and (FIG. 3B) cisplatin resistant EOC cells were treated with or without integrin αV and integrin β1 antibody alone or in combination and viability was assessed using the TACS MTT Cell Proliferation Assay.
FIGS. 4A and 4B. Integrin αV and integrin β1 antibodies cross-react with a potential soluble target in EOC cell media. To test whether media collected from A2780 EOC cells contains a target that cross-reacts with the integrin αV or integrin β1 monoclonal antibodies, cells were cultured for 48 hours followed by removal of media. Either mouse anti-integrin αV or mouse anti-integrin β1 antibody was incubated with the conditioned cell culture media for 24 hours to block the antibody with the unknown target. […]
Cell viability was determined using the TACS MTT Cell Proliferation Assay (Trevigen, Gaithersburg, Md.) per the manufacturer's protocol. […] Absorbance was measured at 570 nm. […] A standard curve was constructed utilizing the OD readings correlating with each standard point and was utilized to determine cell number in the test samples.
Cell Viability was Determined Using the TACS MTT Cell Proliferation Assay (Trevigen, Gaithersburg, Md.) per the manufacturer's protocol. […]

B1: Abciximab (antibody, chains of the INN, looked up, V domains shown)
VH: EVQLQQSGTVLARPGASVKMSCEASGYTFTNYWMHWVKQRPGQGLEWIGAIYPGNSDTSYIQKFKGKAKLTAVTSTTSVYMELSSLTNEDSAVYYCTLYDGYYVFAYWGQGTLVTVSA
VL: EIVLTQSPVTLSVTPGDSVSLSCRASRDISNNLHWFQQTSHESPRLLIKYASQSMSGIPSRFSGSGSGTDFTLSINSVETEDFGMYFCQQTNSWPYTFGGGTKLEIK
modifications: Fab
- anti-cancer activity (cell viability) [1]: significant
- effect of combination with cisplatin [2]: synergistic effect
